According to patent US20260263647A1 (Dana-Farber, published 2026):

Tests used:
[1] = biological target: T1, human CD45 on human peripheral blood mononuclear cells (PBMCs) (human, UniProt P08575 26-1306); experiment: flow cytometry, staining of human PBMCs with different concentrations of the minibody
T1 construct: whole, on cells; The target is inferred from the cells used (CD45+ human PBMCs); also called hCD45
T1 sequence (looked up): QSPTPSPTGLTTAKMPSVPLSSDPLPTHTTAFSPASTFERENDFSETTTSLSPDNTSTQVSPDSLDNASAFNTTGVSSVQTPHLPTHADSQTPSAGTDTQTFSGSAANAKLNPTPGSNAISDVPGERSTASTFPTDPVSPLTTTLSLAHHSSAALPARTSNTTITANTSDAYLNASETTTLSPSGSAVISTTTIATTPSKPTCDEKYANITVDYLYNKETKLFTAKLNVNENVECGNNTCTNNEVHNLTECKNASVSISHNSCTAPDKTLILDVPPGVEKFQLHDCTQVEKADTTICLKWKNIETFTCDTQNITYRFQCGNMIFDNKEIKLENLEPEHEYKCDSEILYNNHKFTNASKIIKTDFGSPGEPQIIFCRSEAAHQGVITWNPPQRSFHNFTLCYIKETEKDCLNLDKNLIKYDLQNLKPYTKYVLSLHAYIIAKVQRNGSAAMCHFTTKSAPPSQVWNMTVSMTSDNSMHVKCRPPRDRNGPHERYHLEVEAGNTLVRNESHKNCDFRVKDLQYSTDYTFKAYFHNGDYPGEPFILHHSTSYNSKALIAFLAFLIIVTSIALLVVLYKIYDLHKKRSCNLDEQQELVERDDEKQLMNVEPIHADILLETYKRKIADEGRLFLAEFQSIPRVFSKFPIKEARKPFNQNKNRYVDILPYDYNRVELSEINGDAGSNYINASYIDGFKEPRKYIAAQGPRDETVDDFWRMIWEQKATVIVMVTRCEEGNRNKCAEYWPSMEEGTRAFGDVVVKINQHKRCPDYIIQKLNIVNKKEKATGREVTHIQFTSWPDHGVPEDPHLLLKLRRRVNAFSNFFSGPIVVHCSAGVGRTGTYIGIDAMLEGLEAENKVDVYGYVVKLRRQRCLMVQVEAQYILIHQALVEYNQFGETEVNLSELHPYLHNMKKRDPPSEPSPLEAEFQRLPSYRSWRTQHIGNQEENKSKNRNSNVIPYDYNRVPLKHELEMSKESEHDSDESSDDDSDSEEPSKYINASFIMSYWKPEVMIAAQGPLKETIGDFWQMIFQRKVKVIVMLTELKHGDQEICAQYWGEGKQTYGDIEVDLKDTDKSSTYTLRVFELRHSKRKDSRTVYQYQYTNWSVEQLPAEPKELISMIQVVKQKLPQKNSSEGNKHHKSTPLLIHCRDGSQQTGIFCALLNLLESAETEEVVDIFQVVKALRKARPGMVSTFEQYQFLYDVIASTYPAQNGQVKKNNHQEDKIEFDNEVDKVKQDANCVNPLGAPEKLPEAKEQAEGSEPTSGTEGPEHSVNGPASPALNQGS

[2] = biological target: T1, human CD45 on human peripheral blood …; experiment: flow cytometry on human PBMCs

EC50 [1]: ~10 nM
EC50 [2]: ~5 nM
B1: CD45 minibody (anti-human CD45 antibody fragment, clone BC8 scFv fused to the IgG1 CH3 domain) (other)
chain: QVQLVESGGGLVQPGGSLKLSCAASGFDFSRYWMSWVRQAPGKGLEWIGEINPTSSTINFTPSLKDKVFISRDNAKNTLYLQMSKVRSEDTALYYCARGNYYRYGDAMDYWGQGTSVTVSKISGGGGSGGGGSGGGGSGGGGSGGGGSSDIVLTQSPASLAVSLGQRATISCRASKSVSTSGYSYLHWYQQKPGQPPKLLIYLASNLESGVPARFSGSGSGTDFTLNIHPVEEEDAATYYCQHSRELPFTFGSGTKLEIKGGGSEPKSPKSADKTHTAPQPREPQVYTLPPSRDELTKNQVSLTCLVKGFYPSDIAVEWESNGQPENNYKTTPPVLDSDGSFFLYSKLTVDKSRWQQGNVFSCSVMHEALHNHYTQKSLSLSPGKDYKDDDKHHHHHH
notes: also called anti-CD45-minibody probe; human CD45-PET probe
